These results are taken from PMC5450235, “Predicting the targeting of tail-anchored proteins to subcellular compartments in mammalian cells” (Journal of Cell Science, 2017).

The chains are these.
T1: recombinant full-length human PEX19 (human, UniProt P40855 1-299)
T1 construct: PEX19, human, full length, cloned into pETM11; also called recombinant PEX19
T1 sequence (looked up): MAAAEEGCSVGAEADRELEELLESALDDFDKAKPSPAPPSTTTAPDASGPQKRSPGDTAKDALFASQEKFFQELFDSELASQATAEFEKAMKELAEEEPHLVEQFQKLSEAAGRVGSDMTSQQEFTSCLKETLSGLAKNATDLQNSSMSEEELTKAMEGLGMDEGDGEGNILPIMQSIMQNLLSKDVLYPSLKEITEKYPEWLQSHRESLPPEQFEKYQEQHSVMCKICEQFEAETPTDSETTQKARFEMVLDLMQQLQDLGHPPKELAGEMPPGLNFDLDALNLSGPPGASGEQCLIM

B1: FITC-labelled peptide ACBD5 MUT2 (peptide)
peptide: {FITC}-SPGVLTFAIIWPFIAQWLVYLYYQAAAAKL
notes: the C-terminal asparagine was removed; also called MUT2 peptide; source: synthetic peptide (Genscript)
B2: FITC-labelled peptide ACBD5 WT (peptide)
peptide: {FITC}-SPGVLTFAIIWPFIAQWLVYLYYQRRRRKL
notes: TMD and tail region of ACBD5; the C-terminal asparagine residue was removed to facilitate peptide synthesis; also called ACBD5-TMD-T WT peptide; source: synthetic peptide (Genscript)
B3: FITC-labelled peptide ACBD5 MUT1 (peptide)
peptide: {FITC}-SPGVLTFAIIWPFIAQWLVYLYYQRARAKL
notes: the C-terminal asparagine was removed; also called MUT1 peptide; peptide MUT1; source: synthetic peptide (Genscript)

No end group written: not given here. *: point of attachment. FITC = O=C1OC2(c3ccc(O)cc3Oc3cc(O)ccc32)c2ccc(NC(=S)*)cc21

The target in the experiment is T1, recombinant full-length human PEX19. The experiment is described as follows: fluorescence polarisation; fluorescence anisotropy; FITC peptide at 6.7 nM, protein titrated (dilution series, factor 1.5); 25°C; 50 mM Tris-HCl pH 7.5, 250 mM NaCl, 0.5 mM TCEP with 0.67 mg/ml BSA, no detergent; 1:1 hyperbolic fit. The note with it: both partners purified. (In general: In fluorescence polarisation assays a small probe gives low polarisation when free and higher when bound to something large.)
Turning to B1, the dissociation constant (Kd) worked out at 7700 nM.
The value for B2 was 900 nM.
The result for B3 reads 1900 nM.

As usually defined, the Kd is the free concentration of one partner at which half of the binding sites on the other are occupied at equilibrium, for simple one-to-one binding.
